Response data for one substance are collected here from publication PMC8390549.

The target of this test is N-terminal DYKDDDK-tagged mouse Tim-3 (T-cell immunoglobulin mucin domain-3) with the VN-173 portion of the Venus fluorophore at the C terminus (Tim-3-VN) (UniProt Q8VIM0). Put plainly: bimolecular fluorescence complementation (BiFC). The settings on record: HeLa CD4+ cells, fixed 24 h after transfection; BiFC intensity normalized to Nef expression (HA staining); 3 independent repeats, 30 cells total; parent: est. 1.1; read off a plot.
Chain of UniProt Q8VIM0 (Q8VIM0 20-281): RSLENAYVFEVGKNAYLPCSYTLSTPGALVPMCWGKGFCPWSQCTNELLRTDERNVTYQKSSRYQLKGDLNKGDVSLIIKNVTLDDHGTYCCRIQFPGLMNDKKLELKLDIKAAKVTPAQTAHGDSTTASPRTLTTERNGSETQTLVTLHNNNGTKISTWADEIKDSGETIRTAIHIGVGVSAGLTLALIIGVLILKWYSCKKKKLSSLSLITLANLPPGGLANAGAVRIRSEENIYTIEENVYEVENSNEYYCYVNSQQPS

With “HIV-1 NL4-3 Nef fused to a C-terminal HA tag and the VC-155 portion of the Venus fluorophore (Nef-HA-VC) L164A; L165A”, the response came out at 0.42 BiFC/Nef IF.
